Data: US20200277373A1 (DENALI THERAPEUTICS, published 2020)
Positions count from the first letter of the chain named.

B1: 42E8.H1 (antibody, V domains shown)
VH: DVQLQESGPGLVKPSQSLSLTCTVTGYSITSDYAWNWIRQFPGNKLEWMGYINYSGRTIYNPSLKSRISITRDTSKNHFFLQLISVTTEDTATYYCARWNGNYGFAYWGQGTLVTVSA
VL: DVVMTQNPLSLPVSLGDQASISCRSSQSLVHINGNTYLHWYLQKPGQSPKLLIYKVSNRFSGVPDRFSGSGSGTDFTLKISRVEAEDLGVYFCSQTTHALFTFGSGTKLEIK
notes: Mouse hybridoma antibody, Ig2a, k; also called RS8.42E8.H1
B2: 26E2.A3 (antibody, V domains shown)
VH: QVHLQQSGSELRSPGSSVKLSCKDFDSEVFPISYMSWIRQKPGHGFEWIGDILPSIGGRIYGVKFEDRATLDADTVSNTAYLELNSLTSEDSAIYYCARKDYGSLAYWGQGTLVTVSA
VL: B1 VL with N7T, H39Q, Y41F, D75A, T96S, A99V, L100P, F101Y, S105G
notes: Mouse hybridoma antibody, Ig2a, k; also called RS8.26E2.A3
B3: 51D4 (antibody, IgG2a, V domains shown)
VH: QVHLQQSGPEVVRPGVSVKISCKGSGYTFTDYGMHWVKQSHAKSLEWIGVISTYNGNTSYNQKYKGKATVTVDKPSSTAYMELVRLTSEDSAIYYCARDFGYVPFDYWGQGTTLTVSS
VL: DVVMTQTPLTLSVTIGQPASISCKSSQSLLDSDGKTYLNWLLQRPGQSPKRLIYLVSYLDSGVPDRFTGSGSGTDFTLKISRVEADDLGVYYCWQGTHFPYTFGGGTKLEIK
notes: Mouse hybridoma antibody, IgG2a, k; also called 51D4.A1; RS8.51D4.A1
B4: 40H3.A4 (antibody, V domains shown)
VH: EVQLQQSGAEVVKPGASVKLSCTASGFNIKDTYMHWVKQRPEQGLEWIGRIDPANGNTKYDPKFQGKATITADTSSNTAYLQLSSLTSEDTAVYYCATLFAYWGQGTLVTVSA
VL: DIVMTQAAFSNPVTLGTSASISCRSSKSLLHSNGITYLYWYLQKPGQSPQLLIYQMSNLASGVPDRFSSSGSGIDFTLRINRVEAEDVGVYYCAQNLELPTFGSGTKLEIK
notes: Mouse hybridoma antibody, isotype N.D; also called RS8.40H3.A4
B5: 21D4.D1 (antibody, V domains shown)
VH: QVQLQQSGADLLRPGVSVKISCKGSGYTFTDHAMHWVKQSHAESLEWIGVISTYSGDTGYNQKFKGKATMTVDKSSSTAYLELARLTSEDSAIYYCAREGHYDDAMDYWGQGTSVTVSS
VL: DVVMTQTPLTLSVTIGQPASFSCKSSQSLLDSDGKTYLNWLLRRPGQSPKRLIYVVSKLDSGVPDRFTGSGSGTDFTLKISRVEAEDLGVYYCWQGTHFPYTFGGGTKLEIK
notes: Mouse hybridoma antibody, Ig2a, k; also called RS8.21D4.D1
B6: 21D11 (antibody, IgG2a, V domains shown)
VH: QVQLQQSGAELARPGASVKLSCKASGYTFTSYWIQWVKQRPGQGLEWIGTIYPGDGDARYTQKFKGKATLTADKSSSTTYMQLNSLASEDSAVYYCARNGITTAGYYAMDYWGQGTSVTVSS
VL: DIQMTQSPASLSVSVGETVTITCRASENIYSNLAWYQQKQGRSPQLLVYAATNLADGVPSRFSGSGSGTQYSLKINSLQSEDFGYYYCQHFWGTPYTFGGGTKVEIK
notes: Mouse hybridoma antibody, IgG2a, k; also called 21D11.B1; RS8.21D11.B1
B7: 26D2.D1 (antibody, IgG2a, V domains shown)
VH: EVQLQQSGPELVKPGASVKMSCKASGYTFTSYVMHWVKQKPGQGLEWIGYINPYTDGTKYNEKFKGKATLTSDKSSSTAYMDLSSLTSEDSAVYYCARGEVRRYALDYWGQGTSVTVSS
VL: DIQMTQSSSSFSVSLGDRVTITCKASEDIYNRLAWYQQKPGNAPRLLISGATSLETGVPSRFSGSGSGKDYTLSITSLQTEDVATYYCQQYWSTPWTFGGGTKLEIK
notes: Mouse hybridoma antibody, IgG2a, k; also called RS8.26D2.D1
B8: 57D7.A1 (antibody, V domains shown)
VH: QVQLKESGPGLVAPSQSLSITCTVSGFSLSRYSVYWVRQPPGKGLEWLGMIWGGGNTDYNSALKSRLSISKDNSKSQVFLKMNSLQTDDSAMYYCVQYGGMDYWGQGTSVTVSS
VL: DVLMTQTPLSLPVSLGDQASISCRSSQSIVHSNGNTYLEWYLQKPGQSPKLLIYKVSNRFSGVPDRFSGSGSGTDFTLKISRVEAEDLGVYYCFQGSHVPYTFGGGTKLEIK
notes: Mouse hybridoma antibody, Ig2a, k; also called RS8.57D7.A1
B9: 3D3.A1 (antibody, V domains shown)
VH: EVQLQQSGPELVKPGASVKISCKTSGYTLSEYTMHWVIQSHGKSLEWIGGVIPNSGGTSYNQKFRDKASLTVDKSSSTAYLELRSLTSEDSAVYYCARGDDSYRRGYALDYWGQGTSVTVSS
VL: DIVMSQSPSSLAVSVGEKVTMSCKSSQSLLYSSNQKSYLAWYQQKPGQSPKLLIYWASTRESGVPDRFRGSGSGTDFTLTISSVKAEDLAVYYCQQYFSYPPTFGGGTKLEIK
notes: Mouse hybridoma antibody, Ig2a, k; also called RS8.3D3.A1
B10: 7B10.A2 (antibody, V domains shown)
VH: EVQLQQSGPELVKPGASVKMSCKASGYTFTDYNMHWVKQSHGKSLEWIGYINPNNGGTTYNQKFKGKATLTVNKSSSTAYMELRSLTSEDSAVYYCATYNNHYFDSWGQGTTLTVSS
VL: DIQMTQTTSSLSASLGDRVTISCSASQGISNYLNWYQQKPDGTVKLLIYYTSNLHSGVPSRFSGSGSGTDYSLTISNLEPEDIATYYCQQYSNLPYTFGGGTKLEIK

What follows are binders tested against T1, Mouse TREM2, on cells (mouse, UniProt Q99NH8 19-227) (assay: Table 5, cell binding: Mouse TREM2 HEK).
T1 construct: whole, on cells; also called mouse TREM2 HEK
T1 sequence (looked up): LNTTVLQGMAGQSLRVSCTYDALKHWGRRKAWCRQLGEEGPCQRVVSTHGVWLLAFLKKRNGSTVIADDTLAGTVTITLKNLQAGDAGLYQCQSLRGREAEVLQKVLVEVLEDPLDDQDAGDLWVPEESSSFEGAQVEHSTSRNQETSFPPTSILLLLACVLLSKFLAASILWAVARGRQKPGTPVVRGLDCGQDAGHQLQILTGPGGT

B1: no binding.
B2: no binding.
B3: no binding.
B4: no binding.
B5: no binding.
B6: no binding.
B7: no binding.
B8: no binding.

These binders were tested against T2, Human TREM2 protein, on cells (human, UniProt Q9NZC2 19-230) (assay: cell-based or functional assay).
T2 sequence: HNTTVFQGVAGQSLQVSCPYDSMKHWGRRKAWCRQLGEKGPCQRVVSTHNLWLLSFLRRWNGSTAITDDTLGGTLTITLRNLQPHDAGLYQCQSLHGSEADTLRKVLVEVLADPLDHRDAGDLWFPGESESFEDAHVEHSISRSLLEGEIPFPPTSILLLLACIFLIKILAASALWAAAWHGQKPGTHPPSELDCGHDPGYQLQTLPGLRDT

In order of rising “pSyk FOB (30 nM Ab)” value:
1. B3  1.12 fold over background
2. B4  1.23 fold over background
3. B6  1.68 fold over background
4. B7  1.73 fold over background
5. B2  4.67 fold over background
6. B8  5.02 fold over background
7. B10  6.89 fold over background
8. B1  7.17 fold over background
9. B9  10.3 fold over background

These binders were tested against T2, Human TREM2 protein, on cells (assay: flow cytometry, HEK293 cells overexpressing human TREM2).
Description: (§1) After labeling, cells were washed twice with 1×PBS. […] Mixed cell lines were seeded at 300,000 cells per well in a 96-well round-bottom and incubated 20 minutes at room temperature. After incubation, cells were centrifuged and test anti-TREM2 antibodies were added, then incubated for 45 minutes on ice. After incubation, cells were centrifuged and washed with FACS buffer three times.
(§2) The data in Table 2 is presented as fold over binding (FOB).

In order of rising “FOB (fold over binding)” value:
1. B4  1 fold
2. B7  4.9 fold
3. B3  7.6 fold
4. B6  8.4 fold
5. B2  10.3 fold
6. B1  10.6 fold
7. B8  11.5 fold
8. B9  11.7 fold
9. B5  12.3 fold

Each binder was assayed against T3, His-tagged TREM2 ECD (ecto domain residues 19-172 of human TREM2, C-terminal 6X-His tag) (human, UniProt Q9NZC2 19-172) (assay: Biacore T200, antibody captured, antigen injected, 1:1 model).
T3 construct: Made in Expi293F cells; the mouse Ig kappa secretion signal is not part of the mature protein; Biotinylated for the Octet binning; also called TREM2-His; TREM2-His protein
T3 sequence: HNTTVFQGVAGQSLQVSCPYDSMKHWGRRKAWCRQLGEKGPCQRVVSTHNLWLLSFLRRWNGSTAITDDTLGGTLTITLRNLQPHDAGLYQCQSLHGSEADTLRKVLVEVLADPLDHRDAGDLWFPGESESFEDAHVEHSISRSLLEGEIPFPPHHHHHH
Description: To measure TfR binding, anti-human-Fab was immobilized on a CM5 chip, and the TREM2/TfR-binding protein was captured. Full-length human TfR or human TfR apical domain at serial dilution (e.g., concentrations of 1-1000 nM) was flowed over the chip (180 second association time) and then allowed to dissociate. Fitting was performed using a 1:1 binding model. To measure TREM2 binding, anti-human-Fc antibody was immobilized on a CM5 chip, and the TREM2/TfR-binding protein was captured. A range of concentrations of recombinant TREM2-His protein were flowed over the chip, and allowed to associate and dissociate. The resulting sensograms were fitted using a 1:1 Langmuir model to estimate kₒₙ and koff (FIG. 10).
Biacore Series S CM5 sensor chips were immobilized with a mixture of two monoclonal mouse anti-Fab antibodies (Human Fab capture kit from GE Healthcare). Serial 3-fold dilutions of each antigen were injected at a flow rate of 30 μL/min. The binding of the antigens to captured antibody was monitored for 30 to 180 seconds and then their dissociation was monitored for 30-300 seconds in HBS-EP+running buffer (GE, # BR100669). Binding response was corrected by subtracting the RU from a blank flow cell. A 1:1 Languir model of simultaneous fitting of kₒₙ and koff was used for kinetics analysis.

In the case of B9, the Kd is reported as 40 nM.

With B9 the koff was 0.019 s⁻¹.

B9 showed a kon of 480000 M⁻¹ s⁻¹.

Each binder was assayed against T3, His-tagged TREM2 ECD (ecto domain …) (assay: Table 1 Kd; Biacore, TREM2-His analyte (presumed)).
Description: Anti-murine Fc antibody (obtained from GE Healthcare) was immobilized on the surface of a CM5 chip (obtained from GE Healthcare) through amine-coupling to reach about 6,000 to 8,000 response units (RU). The surface was activated by injection of a mixture of 1-ethyl-3-(3-dimethylaminopropyl)-carbodiimide (EDC) and N-hydroxysuccinimide (NHS), both obtained from GE Healthcare, for 7 minutes. Anti-murine Fc antibody was diluted in sodium acetate (pH 5.0) at 25 μg/mL and injected for 10 minutes at a flow rate of 5 μL/minute, followed by injection of ethanolamine (obtained from GE Healthcare) for 7 minutes.
Purified anti-TREM2 hybridoma (20 μg/mL) was captured to reach 1000-1500 RU. A range of serially-diluted TREM2-His protein (e.g., 3.4 nM to 300 nM) was injected at a flow rate of 30 μL/minute, using either single-cycle kinetics methods. Sensorgrams were fitted using a 1:1 Langmuir model to estimate kₒₙ and koff.

In order of rising Kd:
1. B6  0.525 nM
2. B4  0.898 nM
3. B5  1.82 nM
4. B8  2.41 nM
5. B3  2.67 nM
6. B9  7.43 nM
7. B2  12.8 nM
8. B7  15 nM
9. B1  17 nM

Each binder was assayed against T1, Mouse TREM2, on cells (assay: flow cytometry, 293F cells overexpressing mouse TREM2).
Description: as §1, §2

In order of falling “FOB (fold over binding)” value:
1. B9  8.4 fold
2. B5  4 fold
3. B1  3.5 fold
4. B7  2.8 fold
5. B8  1.7 fold
6. B2  1.5 fold
7. B6  1.5 fold
8. B3  1.3 fold
9. B4  0.8 fold
